In the supplement of paper PMC10065799, “High-throughput profiling of sequence recognition by tyrosine kinases and SH2 domains using bacterial peptide display” (eLife, 2023):

Legend:
c-Src = test: phosphorylation enrichment, bacterial display (enrichment ratio); higher = better substrate or ligand; peptides without Tyr show the background
EPHB1 = EPHB1 (UniProt P54762); test: as above
MERTK = MERTK (UniProt Q12866); test: as above
c-Abl (mouse) = test: as above
Fyn = Fyn (UniProt P06241); test: as above
Chain of Fyn (P06241 whole entry, looked up): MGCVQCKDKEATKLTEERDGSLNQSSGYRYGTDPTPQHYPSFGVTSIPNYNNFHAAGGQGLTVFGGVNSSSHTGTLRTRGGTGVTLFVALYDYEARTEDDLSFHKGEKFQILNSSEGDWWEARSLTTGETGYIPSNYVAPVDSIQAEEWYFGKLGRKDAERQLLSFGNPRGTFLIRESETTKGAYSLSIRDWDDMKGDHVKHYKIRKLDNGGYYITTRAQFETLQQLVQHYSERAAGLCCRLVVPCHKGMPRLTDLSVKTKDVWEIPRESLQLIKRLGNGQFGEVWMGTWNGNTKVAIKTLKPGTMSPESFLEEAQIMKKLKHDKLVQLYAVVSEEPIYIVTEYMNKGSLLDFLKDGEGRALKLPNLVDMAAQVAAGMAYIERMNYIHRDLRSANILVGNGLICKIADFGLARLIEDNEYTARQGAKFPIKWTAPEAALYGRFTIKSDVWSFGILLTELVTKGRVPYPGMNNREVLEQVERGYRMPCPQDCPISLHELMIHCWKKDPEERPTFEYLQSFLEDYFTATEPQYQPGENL

Fes = Fes (UniProt P07332); test: as above
Chain of Fes (P07332 whole entry, looked up): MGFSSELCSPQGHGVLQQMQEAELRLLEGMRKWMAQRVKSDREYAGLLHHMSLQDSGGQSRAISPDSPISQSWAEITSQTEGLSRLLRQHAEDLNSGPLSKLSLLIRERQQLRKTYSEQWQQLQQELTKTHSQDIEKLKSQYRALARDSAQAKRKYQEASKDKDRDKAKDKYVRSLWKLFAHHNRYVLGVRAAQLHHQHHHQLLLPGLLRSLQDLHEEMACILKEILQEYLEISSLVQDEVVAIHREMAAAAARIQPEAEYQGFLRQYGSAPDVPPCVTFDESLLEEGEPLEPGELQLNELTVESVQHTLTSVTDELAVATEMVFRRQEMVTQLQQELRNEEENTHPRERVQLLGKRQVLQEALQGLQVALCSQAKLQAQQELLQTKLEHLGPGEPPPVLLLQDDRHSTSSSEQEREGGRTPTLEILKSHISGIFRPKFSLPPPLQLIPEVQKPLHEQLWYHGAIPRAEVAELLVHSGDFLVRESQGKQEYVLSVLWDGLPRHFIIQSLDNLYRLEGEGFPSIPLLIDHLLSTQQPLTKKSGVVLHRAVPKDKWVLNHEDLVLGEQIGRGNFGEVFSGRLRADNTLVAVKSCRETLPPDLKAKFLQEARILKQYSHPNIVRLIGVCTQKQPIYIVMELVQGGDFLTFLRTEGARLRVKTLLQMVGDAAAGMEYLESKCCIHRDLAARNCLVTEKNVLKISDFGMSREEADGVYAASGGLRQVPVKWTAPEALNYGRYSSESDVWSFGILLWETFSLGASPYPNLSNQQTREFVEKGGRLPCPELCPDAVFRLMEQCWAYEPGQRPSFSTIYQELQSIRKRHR

Fer (mouse) = test: as above
Hck = Hck (UniProt P08631); test: as above
Chain of Hck (P08631 whole entry, looked up): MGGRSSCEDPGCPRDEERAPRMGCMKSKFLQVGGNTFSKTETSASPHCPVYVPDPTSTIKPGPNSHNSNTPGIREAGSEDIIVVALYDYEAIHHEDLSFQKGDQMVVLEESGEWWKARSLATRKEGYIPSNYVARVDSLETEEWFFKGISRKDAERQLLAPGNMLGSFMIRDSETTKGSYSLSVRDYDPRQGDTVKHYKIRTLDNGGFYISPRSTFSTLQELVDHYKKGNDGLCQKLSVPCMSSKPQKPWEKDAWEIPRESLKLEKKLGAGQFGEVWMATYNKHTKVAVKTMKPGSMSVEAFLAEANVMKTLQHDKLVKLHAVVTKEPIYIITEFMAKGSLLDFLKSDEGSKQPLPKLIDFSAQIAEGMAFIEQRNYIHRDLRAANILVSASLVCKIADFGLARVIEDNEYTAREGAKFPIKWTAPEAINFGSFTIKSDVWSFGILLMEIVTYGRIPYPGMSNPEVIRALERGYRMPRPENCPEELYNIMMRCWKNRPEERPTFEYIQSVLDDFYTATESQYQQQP

FGFR3 = FGFR3 (UniProt P22607); test: as above
Chain of FGFR3 (P22607 whole entry, looked up): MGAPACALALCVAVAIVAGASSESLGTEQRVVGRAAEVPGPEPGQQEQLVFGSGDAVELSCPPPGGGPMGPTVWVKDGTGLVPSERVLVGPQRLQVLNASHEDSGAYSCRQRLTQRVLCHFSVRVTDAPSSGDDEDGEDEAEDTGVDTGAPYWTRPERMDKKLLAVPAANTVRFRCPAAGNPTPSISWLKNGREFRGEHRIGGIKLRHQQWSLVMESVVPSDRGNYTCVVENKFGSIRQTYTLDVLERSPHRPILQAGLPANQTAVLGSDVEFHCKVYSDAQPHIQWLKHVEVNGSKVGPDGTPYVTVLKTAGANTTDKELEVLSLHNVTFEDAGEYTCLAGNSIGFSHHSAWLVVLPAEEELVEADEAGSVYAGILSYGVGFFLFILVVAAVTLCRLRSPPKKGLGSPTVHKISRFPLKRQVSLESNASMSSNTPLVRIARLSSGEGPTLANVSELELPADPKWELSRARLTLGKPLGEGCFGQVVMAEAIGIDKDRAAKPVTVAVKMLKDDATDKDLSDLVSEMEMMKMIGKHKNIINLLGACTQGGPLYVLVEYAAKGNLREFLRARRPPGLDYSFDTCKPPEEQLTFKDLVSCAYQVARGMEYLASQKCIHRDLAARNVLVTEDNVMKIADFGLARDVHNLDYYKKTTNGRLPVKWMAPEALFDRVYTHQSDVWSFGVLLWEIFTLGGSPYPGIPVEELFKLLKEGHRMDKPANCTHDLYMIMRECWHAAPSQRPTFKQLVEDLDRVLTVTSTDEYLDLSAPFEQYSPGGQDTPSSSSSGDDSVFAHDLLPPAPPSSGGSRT

FGFR1 = FGFR1 (UniProt P11362); test: as above
Jak2 = Jak2 (UniProt O60674); test: as above
Chain of Jak2 (O60674 whole entry, looked up): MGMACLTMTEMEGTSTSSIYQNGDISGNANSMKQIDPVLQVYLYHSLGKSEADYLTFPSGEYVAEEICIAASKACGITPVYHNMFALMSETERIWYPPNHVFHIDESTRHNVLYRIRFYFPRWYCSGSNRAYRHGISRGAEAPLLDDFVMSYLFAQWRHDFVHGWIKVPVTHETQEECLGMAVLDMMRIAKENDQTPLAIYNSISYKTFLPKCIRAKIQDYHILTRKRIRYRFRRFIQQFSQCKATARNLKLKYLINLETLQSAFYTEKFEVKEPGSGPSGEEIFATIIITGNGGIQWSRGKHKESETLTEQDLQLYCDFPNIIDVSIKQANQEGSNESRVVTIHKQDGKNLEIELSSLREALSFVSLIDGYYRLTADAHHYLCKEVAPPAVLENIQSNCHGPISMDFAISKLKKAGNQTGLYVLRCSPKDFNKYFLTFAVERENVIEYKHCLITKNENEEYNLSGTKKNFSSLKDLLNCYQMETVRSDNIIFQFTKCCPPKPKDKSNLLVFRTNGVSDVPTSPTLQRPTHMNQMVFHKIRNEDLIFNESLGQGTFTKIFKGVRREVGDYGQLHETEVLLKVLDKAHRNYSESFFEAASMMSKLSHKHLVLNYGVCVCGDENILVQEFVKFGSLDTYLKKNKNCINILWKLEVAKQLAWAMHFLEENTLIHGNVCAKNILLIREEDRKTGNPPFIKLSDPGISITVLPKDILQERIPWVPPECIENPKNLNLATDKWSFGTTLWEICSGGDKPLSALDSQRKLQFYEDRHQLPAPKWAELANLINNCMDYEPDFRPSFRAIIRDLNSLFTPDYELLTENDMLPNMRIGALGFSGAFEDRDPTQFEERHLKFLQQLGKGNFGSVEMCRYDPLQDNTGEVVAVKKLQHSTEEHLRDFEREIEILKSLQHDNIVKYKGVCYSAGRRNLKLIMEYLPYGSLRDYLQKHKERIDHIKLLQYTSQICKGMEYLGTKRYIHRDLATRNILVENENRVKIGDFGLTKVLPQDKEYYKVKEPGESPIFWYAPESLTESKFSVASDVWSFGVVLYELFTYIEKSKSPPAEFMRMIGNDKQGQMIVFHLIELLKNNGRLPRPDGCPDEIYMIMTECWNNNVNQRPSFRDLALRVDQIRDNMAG

EPHB2 = EPHB2 (UniProt P29323); test: as above
Chain of EPHB2 (P29323 whole entry, looked up): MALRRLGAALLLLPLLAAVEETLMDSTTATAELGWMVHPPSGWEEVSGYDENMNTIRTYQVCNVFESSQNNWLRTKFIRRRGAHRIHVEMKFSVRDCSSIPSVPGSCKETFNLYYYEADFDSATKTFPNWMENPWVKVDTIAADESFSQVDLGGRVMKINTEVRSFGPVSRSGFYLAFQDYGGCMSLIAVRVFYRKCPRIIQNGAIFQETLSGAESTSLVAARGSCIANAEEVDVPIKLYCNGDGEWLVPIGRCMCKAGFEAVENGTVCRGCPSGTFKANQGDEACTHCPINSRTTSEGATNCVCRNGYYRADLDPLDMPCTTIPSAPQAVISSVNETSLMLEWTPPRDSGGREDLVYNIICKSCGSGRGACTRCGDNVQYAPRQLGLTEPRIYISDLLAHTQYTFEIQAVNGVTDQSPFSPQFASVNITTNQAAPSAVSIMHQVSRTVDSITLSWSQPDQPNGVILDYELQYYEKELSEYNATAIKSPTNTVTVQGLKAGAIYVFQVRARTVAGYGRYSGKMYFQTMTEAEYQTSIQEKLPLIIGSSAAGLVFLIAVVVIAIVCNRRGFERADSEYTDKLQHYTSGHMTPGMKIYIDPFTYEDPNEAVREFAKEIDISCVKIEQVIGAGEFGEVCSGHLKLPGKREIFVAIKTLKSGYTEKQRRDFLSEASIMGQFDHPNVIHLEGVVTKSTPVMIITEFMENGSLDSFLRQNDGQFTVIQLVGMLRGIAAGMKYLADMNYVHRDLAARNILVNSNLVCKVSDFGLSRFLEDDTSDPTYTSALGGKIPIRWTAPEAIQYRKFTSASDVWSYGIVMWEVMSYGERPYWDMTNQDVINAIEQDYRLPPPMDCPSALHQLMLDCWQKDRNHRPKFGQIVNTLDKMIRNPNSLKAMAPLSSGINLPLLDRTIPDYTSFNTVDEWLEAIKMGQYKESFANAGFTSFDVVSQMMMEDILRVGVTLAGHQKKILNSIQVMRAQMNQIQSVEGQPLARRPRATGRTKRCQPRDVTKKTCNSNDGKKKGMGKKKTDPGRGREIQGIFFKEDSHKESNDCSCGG

AncSZ = test: as above
SHP2-C SH2 = test: SH2 binding enrichment of the phosphorylated peptide, bacterial display (enrichment ratio); higher = better substrate or ligand; peptides without Tyr show the background
Grb2 SH2 = Grb2 SH2 (UniProt P62993); test: as above
c-Src SH2 = test: as above
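For SH2 binding enrichment of the phosphorylated peptide, bacterial display in this document: peptide library displayed on the E. coli surface as eCPX fusions, selected cells deep-sequenced, score is each peptide's frequency after selection divided by its frequency in the input.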
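For phosphorylation enrichment, bacterial display in this document: 11-residue human phosphosite peptides and single-mutation variants displayed on the E. coli surface, counted by deep sequencing, each peptide's frequency after selection divided by its frequency in the unselected input library; frequency after pTyr selection over input frequency; kinase dosed for 20-30% of maximal phosphorylation in three min.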

| SH2 binding enrichment (SHP2-C SH2) | SH2 binding enrichment (Grb2 SH2) | SH2 binding enrichment (c-Src SH2) | Sequence | phosphorylation enrichment (c-Src) | phosphorylation enrichment (EPHB1) | phosphorylation enrichment (MERTK) | phosphorylation enrichment (c-Abl (mouse)) | phosphorylation enrichment (Fyn) | phosphorylation enrichment (Fes) | phosphorylation enrichment (Fer (mouse)) | phosphorylation enrichment (Hck) | phosphorylation enrichment (FGFR3) | phosphorylation enrichment (FGFR1) | phosphorylation enrichment (Jak2) | phosphorylation enrichment (EPHB2) | phosphorylation enrichment (AncSZ) |
| --- | --- | --- | --- | --- | --- | --- | --- | --- | --- | --- | --- | --- | --- | --- | --- | --- |
| 0.548 | 1.01 | 0.353 | FGSSSYRGAGG [RPA2_Y14_G15R_YF] | 0.659 | 0.431 | 0.568 | 0.998 | 0.494 | 0.876 | 0.409 | 0.523 | 0.584 | 0.551 | 0.692 | 0.551 | 0.64 |
| 1.12 | 1.06 | 0.662 | FGVVGYLAIVF [RNF175_Y155_M159V] | 0.457 | 0.811 | 0.498 | 1.1 | 0.452 | 1.94 | 0.649 | 0.557 | 1.14 | 0.559 | 1.65 | 0.691 | 1.4 |
| 0.777 | 1.11 | 0.429 | FKDVTYLTEEK [UBE3A_Y127] | 0.511 | 0.618 | 0.51 | 0.726 | 0.747 | 1.09 | 0.423 | 0.53 | 0.683 | 0.524 | 0.959 | 0.691 | 1.15 |
| 0.641 | 1.01 | 0.759 | FLAAIYPTVGQ [NF1_Y2508_T2507I_YF] | 0.442 | 0.58 | 0.406 | 0.389 | 0.39 | 0.943 | 0.382 | 0.477 | 0.583 | 0.473 | 0.798 | 0.358 | 0.724 |
| 1.22 | 1.11 | 0.781 | FLEKFYKFGCR [NNMT_Y25_S29C_YF] | 0.446 | 0.522 | 0.432 | 0.884 | 0.512 | 1.12 | 0.546 | 0.443 | 0.696 | 0.631 | 0.961 | 0.506 | 0.934 |
| 1.52 | 2.38 | 1.38 | FMIISYVLIIR [OR1D2_Y218_V214M] | 0.437 | 0.225 | 0.446 | 0.625 | 0.426 | 0.631 | 0.491 | 0.553 | 0.559 | 0.651 | 0.383 | 0.483 | 0.936 |
| 1.43 | 1.52 | 1.03 | FMMMRYSQNVR [SDAD1_Y656] | 0.365 | 0.614 | 0.493 | 0.701 | 0.424 | 1.04 | 0.58 | 0.475 | 0.782 | 0.432 | 0.939 | 0.626 | 1.11 |
| 0.498 | 0.852 | 0.437 | FNDSTYNQQLI [ZPLD1_Y198_YF] | 0.617 | 0.474 | 0.431 | 0.694 | 0.429 | 0.878 | 0.463 | 0.482 | 0.555 | 0.651 | 0.863 | 0.483 | 0.883 |

The next lines start with the sequence.

| Sequence | SH2 binding enrichment (SHP2-C SH2) | SH2 binding enrichment (Grb2 SH2) | SH2 binding enrichment (c-Src SH2) | phosphorylation enrichment (c-Src) | phosphorylation enrichment (EPHB1) | phosphorylation enrichment (MERTK) | phosphorylation enrichment (c-Abl (mouse)) | phosphorylation enrichment (Fyn) | phosphorylation enrichment (Fes) | phosphorylation enrichment (Fer (mouse)) | phosphorylation enrichment (Hck) | phosphorylation enrichment (FGFR3) | phosphorylation enrichment (FGFR1) | phosphorylation enrichment (Jak2) | phosphorylation enrichment (EPHB2) | phosphorylation enrichment (AncSZ) |
| --- | --- | --- | --- | --- | --- | --- | --- | --- | --- | --- | --- | --- | --- | --- | --- | --- |
| FGSVDYWEKFF [EEF1AKNMT_Y16] | 0.759 | 0.749 | 0.493 | 0.523 | 0.633 | 0.457 | 0.841 | 0.499 | 1.23 | 0.506 | 0.55 | 1.05 | 0.909 | 1.1 | 0.587 | 1.16 |
| FKDFFYCWNTS [AICDA_Y146_F151S_YF] | 0.689 | 0.815 | 0.59 | 0.589 | 0.942 | 0.836 | 1.08 | 0.458 | 1.5 | 0.768 | 0.589 | 0.939 | 0.496 | 1.42 | 0.61 | 1.32 |
| FKGIVYAVSSD [DCX_Y70] | 0.825 | 0.809 | 0.535 | 0.49 | 0.416 | 0.371 | 0.629 | 0.484 | 0.916 | 0.428 | 0.391 | 0.505 | 0.424 | 0.802 | 0.49 | 0.86 |
| FKTPIYPFLLP [PLD2_Y578_T577I_YF] | 0.892 | 1.14 | 0.825 | 0.559 | 0.564 | 1.57 | 0.747 | 0.456 | 0.883 | 0.497 | 0.523 | 0.782 | 1.06 | 0.91 | 0.563 | 1.11 |
| FLELNYKEDEF [MME_Y502_YF] | 0.773 | 0.856 | 0.585 | 0.349 | 0.612 | 0.344 | 0.589 | 0.461 | 1.05 | 0.524 | 0.552 | 0.633 | 0.565 | 0.848 | 0.569 | 1.34 |
| FLQEIHNSNNQ [FGG_Y140_Y140H_YF] | 0.867 | 0.71 | 0.416 | 0.391 | 0.561 | 0.443 | 0.808 | 0.511 | 1.01 | 0.607 | 0.538 | 0.716 | 0.606 | 0.63 | 0.436 | 0.823 |
| FNNFGYGNDGF [HNRNPH3_Y161_YF] | 0.704 | 0.936 | 0.554 | 0.507 | 0.403 | 0.491 | 0.606 | 0.505 | 0.939 | 0.499 | 0.447 | 0.557 | 0.546 | 0.937 | 0.518 | 0.828 |
| FNNFGYGSDGF [HNRNPH3_Y161_N163S_YF] | 0.685 | 0.823 | 0.386 | 0.453 | 0.527 | 0.455 | 0.727 | 0.442 | 0.962 | 0.455 | 0.57 | 0.593 | 0.499 | 0.829 | 0.592 | 0.856 |
